# Reference: patent US20240325556A1, “Methods of Using Antibody-Drug-Conjugates” (priority 2021, published 2024)
# Read-outs that look alike come from different tables or passages of the source. Square brackets hold non-standard residues; d marks the D form. Peptide text beside a SMILES is read from it. * marks the point of attachment. Dolaproine = CO[C@@H]([C@@H]1CCCN1)[C@@H](C)C(=O)O; Dil = CC[C@H](C)[C@H](NC)[C@@H](CC(=O)O)OC; X1 = C[C@@H](N*)[C@@H](O)c1ccccc1; NMeV = CN[C@H](C(=O)O)C(C)C
# Experiments:
# NCI-H1781 cells = experiment: In vitro cytotoxicity assay against nectin-4-expressing cell line NCI-H1781; format: cell-based; conditions: for IC50: NCI-H1781 cells, 5 days incubation, CellTiter-Glo viability, read-out: Absolute IC50
# Experimental: Cell lines were plated on Day −1 in 96-well plates (Corning #3603) at a density of 4×10^3 cells/well in 100 μL of growth media and cultured overnight. On Day 0, serial dilution of test samples was performed in growth media at 6× the final concentration and 20 μL was added to the cells. After incubation at 37° C. with 5% CO2 for 5 days, viability was measured using Promega CellTiter-Glo® according to the manufacturer's recommendations.
# Methods: Free payloads (MMAE and camptothecin) and nectin-4 ADCs carrying either MMAE, camptothecin, or maytansine were produced and tested in an in vitro cytotoxicity assay against the nectin-4-expressing cell line, NCI-H1781 (FIG. 1).
# Male Sprague-Dawley rats = experiment: Non-GLP rat toxicology study of nectin-4 ADCs; format: in vivo; conditions: 4 doses
# Experimental: (§1) Male Sprague-Dawley rats (8-9 wk old at study start, 5 animals/group) were dosed intravenously with either vehicle alone or with nectin-4 conjugates made using antibodies carrying the variable regions of the rat cross-reactive antibody, enfortumab. The tested ADCs were nectin-4 vedotin (dosed at 10 mg/kg), and nectin-4 CH1/CT RED-106 (dosed at either 10 or 20 mg/kg). Dosing occurred weekly for a total of 4 doses (days 1, 8, 15, and 22). […] Body weights were recorded four times/week. Blood was collected from all animals for clinical pathology on days 5, 12, 19, and 26, and for toxicokinetic analysis at 8 h and days 4 and 7 post-dose (for all doses). Clinical observations were conducted daily.
# Methods: Rat cross-reactive nectin-4 ADCs carrying either RED-106 or vedotin linker-payloads were prepared (DAR depicted in FIGS. 8A-8D) and tested in a rat toxicity study.
# [1] = Toxicokinetic analysis of rat plasma samples (total antibody and total ADC ELISA); format: in vivo; conditions: repeat dose toxicity study, listed as RED-106 conjugate
# Experimental: as §1
# Methods: Total antibody and total ADC concentrations were quantified by ELISA as previously described and diagrammed in the figure. For total antibody, conjugates were captured with an anti-human IgG-specific antibody and detected with an HRP-conjugated anti-human Fc-specific antibody. For total ADC, conjugates were captured with an anti-human Fab-specific antibody and detected with a mouse anti-maytansine primary antibody, followed by an HRP-conjugated anti-mouse IgG-subclass 1-specific secondary antibody. Bound secondary antibody was detected using Ultra TMB One-Step ELISA substrate (Thermo Fisher). […] Data were analyzed using GraphPad Prism and Microsoft Excel software.
# [2] = 10 mg/kg weekly for four doses; cited from earlier work
# [3] = preclinical and clinical effects; cited from earlier work
molecule,measurement,setting,value
N.N.[Cl][Pt][Cl] [Cisplatin],IC50,NCI-H1781 cells,230 nM
"Nectin-4 CH1/CT RED-106: nectin-4 ADC with variable regions of enfortumab, CH1/CT aldehyde-tagged, carrying RED-106 maytansine linker-payload",IC50,NCI-H1781 cells,1 nM
same,In vitro potency of RED-106 conjugate compared with MMAE conjugate,NCI-H1781 cells; NCI-H1781 target cell line,similar
same,Mortality,Male Sprague-Dawley rats; 10 or 20 mg/kg i.v. weekly,no mortalities
same,Signs of fur/skin toxicity compared with vedotin conjugate,Male Sprague-Dawley rats; 10 or 20 mg/kg i.v. weekly,fewer signs of fur/skin toxicity
same,In vivo stability of the conjugate compared with the vedotin ADC,[1],improved in vivo stability
"nectin-4 vedotin: nectin-4 conjugate with enfortumab variable regions, untagged antibody conjugated with maleimide-valcit-MMAE [reference compound]",Clinical signs of toxicity in fur and skin,Male Sprague-Dawley rats; 10 mg/kg i.v. weekly,all animals exhibited clinical signs of toxicity in fur and skin
same,Animals euthanized in distress,"Male Sprague-Dawley rats; 10 mg/kg i.v. weekly, 5 animals/group",1 animal
same,Toxicity noted in previous reports,[2],fur and skin toxicity and mortality
"CC[C@H](C)[C@@H]([C@@H](CC(=O)N1CCC[C@H]1[C@H](OC)[C@@H](C)C(=O)N[C@H](C)[C@@H](O)c1ccccc1)OC)N(C)C(=O)[C@@H](NC(=O)[C@@H](NC)C(C)C)C(C)C [Free MMAE, monomethyl auristatin E] (H-[NMeV]V[Dil][Dolaproine]-X1)",IC50,NCI-H1781 cells,0.3 nM
"CC[C@@]1(O)C(=O)OCc2c1cc1n(c2=O)Cc2cc3ccccc3nc2-1 [Free Camptothecin, camptothecin]",IC50,NCI-H1781 cells; 120 h,1 nM
"DS-1062 (conjugate, chains of the INN, looked up, deruxtecan payload) VH: QVQLVQSGAEVKKPGASVKVSCKASGYTFTTAGMQWVRQAPGQGLEWMGWINTHSGVPKYAEDFKGRVTISADTSTSTAYLQLSSLKSEDTAVYYCARSGFGSSYWYFDVWGQGTLVTVSS VL: DIQMTQSPSSLSASVGDRVTITCKASQDVSTAVAWYQQKPGKAPKLLIYSASYRYTGVPSRFSGSGSGTDFTLTISSLQPEDFAVYYCQQHYITPLTFGQGTKLEIK",Toxicity noted in previous reports,[3],skin and mucosal toxicity
